From publication PMC3942467

Target: recombinant C-terminal fragment (residues 284-707) of nucleolin (nucleolin-C) (UniProt P19338)
Test: SPR; Biacore 3000; nucleolin-C amine-coupled on CM4 chip (~540 RU); FGF1 or FGF2 10-320 nM in PBS with 0.1 mg/ml BSA, 0.005% P20, pH 7.3, 25 C, 30 ul/min; no fit to 1:1 Langmuir, constants by Interaction Map (two parallel processes); apparent/approximate

UniProt P19338, sequence (P19338 284-707): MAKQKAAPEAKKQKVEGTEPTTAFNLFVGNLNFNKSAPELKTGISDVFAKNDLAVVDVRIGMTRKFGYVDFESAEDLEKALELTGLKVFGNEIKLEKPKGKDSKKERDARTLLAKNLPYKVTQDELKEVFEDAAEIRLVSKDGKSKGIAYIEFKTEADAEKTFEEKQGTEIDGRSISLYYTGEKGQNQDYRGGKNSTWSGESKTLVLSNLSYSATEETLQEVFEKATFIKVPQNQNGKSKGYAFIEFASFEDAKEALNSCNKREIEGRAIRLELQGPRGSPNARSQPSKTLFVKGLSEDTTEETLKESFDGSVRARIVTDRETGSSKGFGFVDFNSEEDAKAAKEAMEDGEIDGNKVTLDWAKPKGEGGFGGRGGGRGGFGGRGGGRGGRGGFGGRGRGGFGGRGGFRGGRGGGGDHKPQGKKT

KD, stronger of two parallel binding processes (apparent): 0.04 µM | KD, weaker of two parallel binding processes (approximate): 0.48 µM | ka, stronger of two parallel binding processes: 18000 M⁻¹ s⁻¹ | ka, weaker of two parallel binding processes: 1.7e+06 M⁻¹ s⁻¹ | kd, stronger of two parallel binding processes: 0.0007 s⁻¹ | kd, weaker of two parallel binding processes: 0.83 s⁻¹
Substance: recombinant FGF1, truncated form (Ala-FGF1 21-154), wild type (ligand)
